Results on three molecules are retold here after patent US20120058906A1 (published 2012).

Where a chain is given by its changes, count along the chain named.

Experiment [1] has as its target T1, rHuman Notch-1/Fc Chimera, CF (R&D Systems Cat#3647-TK) (human, UniProt P46531 19-526).
T1 construct: Bought Fc chimera; Fc part of the bought chimera not given
Briefly: MSD ECL titration, Fab 37.2 nM, blank 199.

Experiment [2] has as its target T2, rHuman CD44/Fc Chimera, CF (R&D Systems Cat#3660-CD) (human, UniProt P16070 21-220).
T2 construct: Bought Fc chimera; Fc part of the bought chimera not given
Nature of the experiment: MSD ECL titration, Fab 37.2 nM, blank 199.

The target of experiment [3] is T3, rHuman IGF-1 sR (insulin-like growth factor-1 soluble receptor), CF (R&D Systems Cat#391-GR) (human, UniProt P08069 31-932).
T3 construct: Bought soluble receptor; also called IGF-R1
Briefly: MSD ECL titration, Fab 37.2 nM, blank 199.

Experiment [4] deals with T4, rHuman P-Cadherin/Fc Chimera, CF (R&D Systems Cat#861-PC) (human, UniProt P22223 108-654).
T4 construct: Bought Fc chimera; Fc part of the bought chimera not given
Briefly: MSD ECL titration, Fab 37.2 nM, blank 199.

In experiment [5] the target is T5, rHuman Erythropoietin R/Fc Chimera, CF (R&D Systems Cat#963-ER) (human, UniProt P19235 25-250).
T5 construct: Bought Fc chimera; also called EPO R/Fc; EPOR; Fc part of the bought chimera not given
T5 sequence: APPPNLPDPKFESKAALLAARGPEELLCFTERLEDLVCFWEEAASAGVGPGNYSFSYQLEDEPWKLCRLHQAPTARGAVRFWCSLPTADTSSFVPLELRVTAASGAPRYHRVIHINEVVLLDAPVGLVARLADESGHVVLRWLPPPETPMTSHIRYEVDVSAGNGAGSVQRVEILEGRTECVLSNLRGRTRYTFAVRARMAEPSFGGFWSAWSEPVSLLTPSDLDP
Briefly: MSD ECL titration, Fab 37.2 nM, blank 199.

Experiment [6] has as its target T6, Recombinant Human DLL4 (R&D Systems Cat#1506-D4/CF) (human, UniProt Q9NR61 27-524).
T6 construct: Bought recombinant protein; also called rHuman DLL4; delta-like protein 4
Briefly: MSD ECL titration, Fab 37.2 nM, blank 199.

The target of experiment [7] is T7, rHuman ErbB2/Fc Chimera, CF (R&D Systems Cat#1129-ER) (human, UniProt P04626 23-652).
T7 construct: Bought Fc chimera; also called HER2/neu; Fc part of the bought chimera not given
Nature of the experiment: MSD ECL titration, Fab 37.2 nM, blank 199.

In experiment [8] the target is T8, rHuman EGF R/Fc Chimera, CF (R&D Systems Cat#344-ER) (human, UniProt P00533 25-645).
T8 construct: Bought Fc chimera; Fc part of the bought chimera not given
Nature of the experiment: MSD ECL titration, Fab 37.2 nM, blank 199.

The target of experiment [9] is T9, rHuman HGF R/c-MET/Fc Chimera, CF (R&D Systems Cat#358-MT/CF) (human, UniProt P08581 25-932).
T9 construct: Bought Fc chimera; also called HGF R/Fc; Fc part of the bought chimera not given
Nature of the experiment: MSD ECL titration, Fab 37.2 nM, blank 199.

In experiment [10] the target is T10, rHuman CD44/Fc Chimera, CF (R&D Systems Cat#3660-CD) (human, UniProt P16070 21-220).
T10 construct: Bought Fc chimera; Fc part of the bought chimera not given
Nature of the experiment: ECL (MSD Multi-Spot) binding, antigen spotted on plate; Fab 500 nM.

Experiment [11] addresses T11, rHuman Erythropoietin R/Fc Chimera, CF (R&D Systems Cat#963-ER) (human, UniProt P19235 25-250).
T11 construct: Bought reagent; also called EPO R/Fc; Epo R; Fc part of the bought chimera not given
T11 sequence: T5 sequence
Briefly: ECL (MSD multi-spot), antigen spotted on plate; Fab 44.1 nM; blank spot 200.

Experiment [12] concerns the target T12, Recombinant Human DLL4 (R&D Systems Cat#1506-D4/CF) (human, UniProt Q9NR61 27-524).
T12 construct: Bought reagent; also called delta-like protein 4
The experiment is described as above.

Experiment [13] deals with T13, rHuman ErbB2/Fc Chimera, CF (R&D Systems Cat#1129-ER) (human, UniProt P04626 23-652).
T13 construct: Bought reagent; also called HER2/neu; human epidermal growth factor 2 receptor; Fc part of the bought chimera not given
The experiment is described as above.

The target in experiment [14] is T14, rHuman EGF R/Fc Chimera, CF (R&D Systems Cat#344-ER) (human, UniProt P00533 25-645).
T14 construct: Bought reagent; also called epidermal growth factor receptor; Fc part of the bought chimera not given
The experiment is described as above.

For experiment [15], the target named is T15, rHuman HGF R/c-MET/Fc Chimera, CF (R&D Systems Cat#358-MT/CF) (human, UniProt P08581 25-932).
T15 construct: Bought reagent; also called HGF R/Fc; hepatocyte growth factor receptor; Fc part of the bought chimera not given
The experiment is described as above.

Experiment [16] concerns the target T16, rHuman Notch-1/Fc Chimera, CF (R&D Systems Cat#3647-TK) (human, UniProt P46531 19-526).
T16 construct: Bought reagent; Fc part of the bought chimera not given
The description is as above.

Experiment [17] concerns the target T17, rHuman CD44/Fc Chimera, CF (R&D Systems Cat#3660-CD) (human, UniProt P16070 21-220).
T17 construct: Bought reagent; Fc part of the bought chimera not given
The description is as above.

The target of experiment [18] is T18, rHuman IGF-1 sR (IGF-1 sR), CF (R&D Systems Cat#391-GR) (human, UniProt P08069 31-932).
T18 construct: Bought soluble receptor; also called insulin-like growth factor-1 soluble receptor; IGF-R1
Described as above.

In experiment [19] the target is T19, rHuman P-Cadherin/Fc Chimera, CF (R&D Systems Cat#861-PC) (human, UniProt P22223 108-654).
T19 construct: Bought reagent; also called CDH3; Fc part of the bought chimera not given
Described as above.
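Further: blank spot per well as comparator with Hit at signal to blank ratio of 4 or more.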

B1: Fab VH1-46_IGHD6-6*01_IGHJ1*01 & L6_IGKJ1*01 (Fab, V domains shown)
VH: QVQLVQSGAEVKKPGASVKVSCKASGYTFTSYYMHWVRQAPGQGLEWMGIINPSGGSTSYAQKFQGRVTMTRDTSTSTVYMELSSLRSEDTAVYYCAREEYSSSSAEYFQHWGQGTLVTVSS
VL: not shown
notes: Expressed in E. coli as Fab: heavy chain with CH1 plus Flag and His tags from Plasmid A, kappa light chain constant region from Plasmid C; also called Fab No. 1
Take B1: the ECL signal worked out at 402 in experiment [1]; 356 in [2]; 295 in experiment [3]; 649 in [4]; 315 in [5]; 16700 in experiment [6]. Moreover, the values for the ECL signal in [7], in experiment [8] and in [9] were 384, 228 and 207, respectively.

B2: Fab VH1-46_IGHD6-6*01_IGHJ1*01_S102A_S103P_S104F_H111Y & L6_IGKJ1*01 (Fab, V domains shown)
VH: B1 VH with S102A, S103P, S104F, H111Y
VL: not shown
notes: Fab made in E. coli; The heavy chain also carries the CH1 with Flag and His tags of Plasmid A, and the light chain the kappa constant region of Plasmid C
The molecule B2 gave an ECL signal in experiment [10] of 664.

B3: Fab VH1-46_IGHD3-10*01_IGHJ4*01 & B3_IGKJ1*01 (Fab, V domains shown)
VH: QVQLVQSGAEVKKPGASVKVSCKASGYTFTSYYMHWVRQAPGQGLEWMGIINPSGGSTSYAQKFQGRVTMTRDTSTSTVYMELSSLRSEDTAVYYCAREYYYGSGSYYNDYFDYWGQGTLVTVSS
VL: not shown
notes: also called IGHV1-46*01
For the molecule B3, the ECL signal came to 2390 in experiment [11]; 388 in experiment [12]; 347 in experiment [13]; 428 in [14]; 336 in experiment [15]; 331 in experiment [16]. Also, the ECL signal in experiment [17] was found to be 302; in experiment [18], 309; in [19], 343.
